Decrease of co-precipitation (IP relative to input) after the CK2 inhibitor CX-5011 data for one substance are collected here from paper PMC12136000.

In the assay the target is FLAG-tagged eIF3d (wild-type eIF3D-FLAG) (UniProt O15371). Briefly: co-IP; HeLa lysate (50 mM Tris pH7.5, 150 mM NaCl, 1% Triton-X, Benzonase) on anti-flag-beads for 2 h at 4 °C, three washes, western blot; cells treated for 2 h with DMSO or with 3 µM of the CK2 inhibitor CX-5011 before lysis. A general note: In western blotting, separated proteins are transferred to a membrane and probed.
Chain of UniProt O15371 (O15371 whole entry): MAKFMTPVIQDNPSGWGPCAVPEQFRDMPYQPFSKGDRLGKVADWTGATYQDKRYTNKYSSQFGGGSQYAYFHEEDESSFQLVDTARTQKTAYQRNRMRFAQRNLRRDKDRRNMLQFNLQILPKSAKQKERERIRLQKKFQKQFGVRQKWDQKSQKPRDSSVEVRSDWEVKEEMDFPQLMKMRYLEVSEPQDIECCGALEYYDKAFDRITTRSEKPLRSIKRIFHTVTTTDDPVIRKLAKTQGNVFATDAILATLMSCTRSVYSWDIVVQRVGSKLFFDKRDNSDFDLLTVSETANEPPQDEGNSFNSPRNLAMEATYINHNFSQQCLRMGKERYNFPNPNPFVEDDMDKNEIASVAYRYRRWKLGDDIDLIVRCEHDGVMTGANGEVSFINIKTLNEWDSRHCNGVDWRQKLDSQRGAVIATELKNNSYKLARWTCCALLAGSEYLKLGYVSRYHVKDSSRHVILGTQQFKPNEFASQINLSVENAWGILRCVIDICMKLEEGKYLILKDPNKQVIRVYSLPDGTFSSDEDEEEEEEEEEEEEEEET

In turn, “eIF4A (from UniProt P60842 1-406) (natural protein)” displayed a decrease of co-precipitation (IP relative to input) after the CK2 inhibitor CX-5011 of 37 % decrease.
